# Measured values: patent US7572589B2, “Diagnosis and treatment of infectious diseases through indel-differentiated proteins” (priority 2001, dated 2009)
# B1: macrophage EF-1α: EF-1α purified to near homogeneity from murine macrophages (RAW 264.7) (protein)
# chain: GKEKTHINIVVIGHVDSGKSTTTGHLIYKCGGIDKRTIEKFEKEAAEMGKGSFKYAWVLDKLKAERERGITIDISLWKFETSKYYVTIIDAPGHRDFIKNMITGTSQADCAVLIVAAGVGEFEAGISKNGQTREHALLAYTLGVKQLIVGVNKMDSTEPPYSQKRYEEIVKEVSTYIKKIGYNPDTVAFVPISGWNGDNMLEPSANMPWFKGWKVTRKDGSASGTTLLEALDCILPPTRPTDKPLRLPLQDVYKIGGIGTVPVGRVETGVLKPGMVVTFAPVNVTTEVKSVEMHHEALSEALPGDNVGFNVKNVSVKDVRRGNVAGDSKNDPPMEAAGFTAQVIILNHPGQISAGYAPVLDCHTAHIACKFAELKEKIDRRSGKKLEDGPKFLKSGDAAIVDMVPGKPMCVESFSDYPPLGRFAVRDMRQTVAVGVIKAVDKKAAGAGKVTKSAQKAQKAK
# Assays:
# SHP-1 [1] = biological target: T1, SHP-1 (Homo sapiens, UniProt P29350); settings: cited from earlier work
# T1 construct: made in house
# [2] = tested on: Macrophages infected with L. donovani; settings: cells incubated with inhibitor prior to infection; cited from earlier work
# SHP-1 [3] = biological target: T1, SHP-1; experiment: Binding assay of purified EF-1α with GST-SHP-1 glutathione beads, immunoblot; settings: purified proteins, glutathione-sepharose beads
# Procedure: (§1) For binding assays, purified EF-1α from either leishmania or macrophages was incubated with 25 μl (packed volume) of glutathione-agarose beads containing equal amounts of GST-SHP-1. Binding was accomplished by mixing in 100 μl of binding buffer (50 mM HEPES [pH 7.5], 0.15 M NaCl, 1 mM EDTA, 1 mM DTT, 0.01% Triton X-100™ and 1% glycerol) for 2 h at 4° C. The beads were collected by centrifugation and washed four times with binding buffer. Bound EF-1α was eluted by boiling beads in Laemmli sample buffer, separated on SDS-PAGE followed by immunoblotting using anti-EF-1α. Binding of EF-1α to calmodulin-agarose was performed essentially as described above for GST-SHP-1 except that binding buffer contained 0.2 mM CaCl2 instead of EDTA. Also, after incubation, non-bound proteins were removed and affinity beads were assayed for SHP-1 phosphatase activity using pNPP as a substrate. Relative phosphatase activity was assessed by measuring changes in absorbance at 405 nm.
# SHP-1 [4] = biological target: T2, SHP-1 (Mus musculus, UniProt P29351); experiment: SHP-1 phosphatase activity (pNPP) after Profect-1 delivery of purified EF-1α into macrophages; assay type: cell-based, murine; settings: purified protein introduced into macrophages
# T2 construct: complexes for delivery to macrophages (approximately 2×10^6); endogenous in cells; host or cells: macrophages (RAW 264.7 named in the materials)
# Procedure: Approximately 1 μg of purified EF-1α from leishmania or macrophages or an equivalent amount of BSA were incubated separately with Profect 1™ reagent (Targety Systems, Santee, Calif., USA) in serum free media to prepare protein-Profect-1™ complexes for delivery to macrophages (approximately 2×10^6) according to the manufacturer's instructions. After 2-3 hr of incubation, cells were lysed in buffer C (50 mM Tris [pH 7.5], 1% Triton X-100™ and 0.15M NaCl) containing a cocktail of protease inhibitors for 20 min on ice and incubated with anti-SHP-1 for 2 h end-over-end at 4° C. Immune complexes were recovered using protein A-sepharose and after extensive washing with buffer C, immune complexes were assayed for phosphatase activity using pNPP as a substrate.
# calmodulin = biological target: T3, calmodulin (Homo sapiens, UniProt P0DP23); experiment: Binding of purified EF-1α to calmodulin-agarose; settings: purified proteins
# T3 construct: purchased Sigma Chemical Co. (St. Louis, Mo.)
# Procedure: as §1
# T1 sequence (P29350 whole entry): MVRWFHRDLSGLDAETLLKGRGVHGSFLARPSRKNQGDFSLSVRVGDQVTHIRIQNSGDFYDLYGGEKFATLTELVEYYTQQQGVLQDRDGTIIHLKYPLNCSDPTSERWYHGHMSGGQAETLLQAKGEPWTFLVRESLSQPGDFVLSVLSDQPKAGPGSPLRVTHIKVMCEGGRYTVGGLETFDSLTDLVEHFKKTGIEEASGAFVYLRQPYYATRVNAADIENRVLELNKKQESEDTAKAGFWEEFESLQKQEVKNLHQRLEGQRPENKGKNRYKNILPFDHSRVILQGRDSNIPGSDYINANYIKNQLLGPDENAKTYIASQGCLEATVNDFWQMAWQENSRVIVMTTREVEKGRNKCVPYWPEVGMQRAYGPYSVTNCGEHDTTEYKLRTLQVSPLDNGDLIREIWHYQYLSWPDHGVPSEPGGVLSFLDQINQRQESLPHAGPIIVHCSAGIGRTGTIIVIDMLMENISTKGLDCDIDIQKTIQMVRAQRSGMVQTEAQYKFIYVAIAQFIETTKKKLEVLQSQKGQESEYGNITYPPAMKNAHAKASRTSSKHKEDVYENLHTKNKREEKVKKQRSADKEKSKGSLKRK
# T2 sequence (P29351 whole entry): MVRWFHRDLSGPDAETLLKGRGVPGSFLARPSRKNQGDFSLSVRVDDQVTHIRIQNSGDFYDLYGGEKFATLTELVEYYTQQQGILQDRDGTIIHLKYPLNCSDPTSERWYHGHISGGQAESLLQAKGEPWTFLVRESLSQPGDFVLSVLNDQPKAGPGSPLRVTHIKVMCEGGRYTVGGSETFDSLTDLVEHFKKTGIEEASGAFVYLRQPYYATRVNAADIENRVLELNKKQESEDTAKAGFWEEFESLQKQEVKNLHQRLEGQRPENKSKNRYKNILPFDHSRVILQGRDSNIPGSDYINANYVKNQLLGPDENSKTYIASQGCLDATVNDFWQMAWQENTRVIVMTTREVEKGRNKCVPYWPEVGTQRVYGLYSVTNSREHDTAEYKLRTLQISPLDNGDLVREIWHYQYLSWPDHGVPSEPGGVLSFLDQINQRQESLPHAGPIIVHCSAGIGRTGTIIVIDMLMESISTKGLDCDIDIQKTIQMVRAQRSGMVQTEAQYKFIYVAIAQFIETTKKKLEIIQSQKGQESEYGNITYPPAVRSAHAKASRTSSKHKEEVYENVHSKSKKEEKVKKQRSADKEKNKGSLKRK
molecule,measurement,setting,value
O.O.O.O.O.O.O.O.O.O=C([O-])[C@@H]1[O][Sb]2([O-])([O][Sb]34([OH])[O][C@H]([C@H](O)CO)[C@H]([O]3)[C@H](C(=O)[O-])[O]4)[O][C@H]([C@H](O)CO)[C@@H]1[O]2.[Na+].[Na+].[Na+] [sodium stibogluconate],inhibition of SHP-1,SHP-1 [1],inhibitor of SHP-1
sodium orthovandate,phenotype of impaired cell signaling and cell deactivation,[2],reversed
B1,binding to GST-SHP-1,SHP-1 [3],comparatively little binding
same,activation of SHP-1,SHP-1 [4],activation of SHP-1 was not observed
same,binding to calmodulin,calmodulin,bound directly and with similar affinities
